Measured values as given in doi:10.1101/212233 (bioRxiv, 2017).

Molecular target: the molecule itself
Experiment: cryo-EM structure

Protein	binding result
DARP14 subunit B (unfused cage subunit B) (other) MPHLVIEATANLRLETSPGELLEQANKALFASGQFGEADIKSRFVTLEAYRQGTAAVERAYLHACLSILDGRDIATRTLLGASLCAVLAEAVAGGGEEGVQVSVEVREMERLSYAKRVVARQR	binds
DARP14 subunit A (cage subunit A fused to the DARPin by a continuous alpha helix) (other) MRITTKVGDKGSTRLFGGEEVWKDSPIIEANGTLDELTSFIGEAKHYVDEEMKGILEEIQNDIYKIMGEIGSKGKIEGISEERIAWLLKLILRYMEMVNLKSFVLPGGTLESAKLDVCRTIARRALRKVLTVTREFGIGAEAAAYLLALSDLLFLLARVIEIELGKKLLEAARAGQDDEVRILMANGADVNAHDDQGSTPLHLAAWIGHPEIVEVLLKHGADVNARDTDGWTPLHLAADNGHLEIVEVLLKYGADVNAQDAYGLTPLHLAADRGHLEIVEVLLKHGADVNAQDKFGKTAFDISIDNGNEDLAEILQKLN	binds
